Assay results taken from patent publication US20080306243A1 (NEC, published 2008).

molecular target: T1, HLA-A2402 molecule, which is a product of the HLA-A*2402 gene (human); assay: flow cytometry; reassociation of peptide, added β2m and HLA-A2402 on acid-stripped C1R-A24 cells, stained with mAb 17A12
T1 construct: MHC class I molecule on C1R-A24 cells, emptied by acid and reassociated with added β2m and the test peptide; also called HLA-A24 molecule; human HLA-A2402 molecule
Protocol: After neutralization, purified β2m was added to C1R-A24 cells, the obtained product was added to serial dilutions of a peptide, and incubated on ice for 4 hours.
Subsequently, the MHC-pep count per C1R-A24 cell (proportional to the strength of fluorescence of the above-mentioned fluorescent antibody) was quantitatively measured using an FACScan fluorescence-activated cell sorter (Becton Dickinson Biosciences). A binding dissociation constant Kd value between the HLA-A24 molecule and the peptide was calculated from the average strength of fluorescence per cell by a published method (Udaka et al., Immunogenetics, 51, 816-828, 2000).

Binder	-log Kd
VLVHPQWVL (Synthetic 9-mer peptide of PSA (GenBank M26663)) [SEQ ID NO 9]	6.34 -log Kd
ILSRIVGGW (Synthetic 9-mer peptide of PSA (GenBank M26663)) [SEQ ID NO 6]	7.21 -log Kd
QVFQVSHSF (Synthetic 9-mer peptide of PSA (GenBank M26663)) [SEQ ID NO 5]	7.32 -log Kd
ILLGRHSLF (Synthetic 9-mer peptide of PSA (GenBank M26663)) [SEQ ID NO 3]	7.47 -log Kd
GVLQGITSW (Synthetic 9-mer peptide of PSA (GenBank M26663)) [SEQ ID NO 8]	5.38 -log Kd
VHPQKVTKF (Synthetic 9-mer peptide of PSA (GenBank M26663)) [SEQ ID NO 7]	6.65 -log Kd
